Earlier results on one substance are cited in publication PMC5535775.

Where only a bound is given, the exact number is not on record here.

The data set addresses DIAPH1 FH1 (Homo sapiens) (UniProt O60610). Nature of the data set: NMR.
Chain of UniProt O60610 (O60610 580-767): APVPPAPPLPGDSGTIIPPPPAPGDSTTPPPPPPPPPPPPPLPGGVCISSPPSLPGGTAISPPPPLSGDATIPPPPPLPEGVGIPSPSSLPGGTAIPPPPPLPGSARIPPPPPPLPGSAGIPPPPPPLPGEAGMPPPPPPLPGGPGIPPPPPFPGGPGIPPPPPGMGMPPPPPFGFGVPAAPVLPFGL

Usually Kd stands for a measure of binding affinity in units of concentration. For “RAGE cytoplasmic domain (from UniProt Q15109)”, the dissociation constant (Kd) is < 10 µM.
